Experimental data: patent publication US20250326826A1 (CENTRO DE INGENIER A GEN TICA Y BIOTECNOLOG A, published 2025)
Read-outs that look alike come from different tables or passages of the source.

Tests used:
GST-hVEGF121 [1] = target: T1, GST-hVEGF121 (human, UniProt P15692-9 27-147); experiment: competition ELISA, coated GST-hVEGF, competitor Fc-VEGFR2
T1 construct: plate coating of the VEGF ELISAs; also called human VEGF; not shown: glutathione S-transferase (GST) fusion partner
T1 sequence (looked up): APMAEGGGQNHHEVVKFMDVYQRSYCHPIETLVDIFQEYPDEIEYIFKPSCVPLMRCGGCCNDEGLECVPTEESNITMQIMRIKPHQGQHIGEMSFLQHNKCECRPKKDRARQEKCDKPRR

GST-hVEGF121 [2] = target: T1, GST-hVEGF121; experiment: ELISA, coated GST-hVEGF
Recombinant human bFGF [3] = target: T2, Recombinant human bFGF (human, UniProt P09038 143-288, limits assumed); experiment: ELISA, coated human bFGF
T2 construct: Bought (Sigma); also called hFGF-2; human basic fibroblast growth factor
T2 sequence (P09038 143-288 limits assumed): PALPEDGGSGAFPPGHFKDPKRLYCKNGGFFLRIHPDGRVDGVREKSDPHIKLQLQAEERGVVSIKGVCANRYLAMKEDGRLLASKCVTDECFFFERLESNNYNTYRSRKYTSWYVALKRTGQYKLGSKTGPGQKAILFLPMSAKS

Recombinant human bFGF [4] = target: T2, Recombinant human bFGF; experiment: competition ELISA, coated bFGF, competitor Fc-FGFR1
Recombinant human bFGF [5] = target: T2, Recombinant human bFGF; experiment: ELISA, coated human bFGF; remark: listed apart in the source
Protocol: (§1) The 96-well plates were coated with 100 μL/well of a solution of GST-hVEGF121, GST-mVEGF120, or GST at a concentration of 20 μg/mL, or with a solution of VEGFKDR- at a concentration of 10 μg/mL, or hFGF-2 or mFGF-2 at a concentration of 5 μg/mL in 1×PBS for 16 hours at 4° C. After the plates were blocked with PBS-5% skim milk for one hour, 1:2 serial dilutions of the purified VHHs were added, starting at 2 μg/mL in PBS-0.5% skim milk. The plates were incubated for 1 hour at 37° C. and after several washes, the monoclonal antibody 9E10, specific for c-myc, was added. After one hour of incubation at 25° C. the plates were washed thoroughly. The binding of the fragment to the antigen in the solid phase was detected by the peroxidase activity using 100 μL/well of TMB. The reaction was stopped with 50 μL/well of stop solution, and absorbance values at 450 nm were determined in a microtiter plate reader.
SEQ ID NO: 18 and SEQ ID NO: 19, and the bivalent Nb-VV6 and Nb-FF2, with sequences identified as SEQ ID NO: 20 and SEQ ID NO: 21, were expressed and purified as described in the Example 1. In all cases, the purity and identity of the proteins were verified by SDS-PAGE 12% and anti-polyhistidine Western Blot. […] The experimental mass of the polypeptides and the arrangement of the disulfide bridges were checked by ESI/MS-MS. The experimental and theoretical mass, for each polypeptide coincided, with errors less than 0.0015% in all cases, and the formation of intramolecular bridges between C22-C101 and C168-C247 was verified. […] The biological activity of the polypeptides was evaluated by ELISA for recognition of the VEGF and bFGF antigens, and by their ability to displace VEGF and bFGF binding to their respective VEGFR2 and FGFR1 receptors. […] Similarly, it was shown that the ability to displace the binding of antigens by their receptors was not affected.

GST-hVEGF121 [6] = target: T1, GST-hVEGF121; experiment: competition ELISA, coated GST-hVEGF, competitor Fc-VEGFR2; remark: listed apart in the source
Protocol: (§2) The ability of VHHs to hinder receptors for binding to their ligand was assessed by ELISA, for which 96-well plates (NUNC, USA) were coated with GST-hVEGF or bFGF and blocked as described in the previous section. Serial 1:2 dilutions of the purified VHHs, from […] to […], were added and the plates and incubated for 1 h at 37° C. In this step, some wells were left where only PBS-milk was added. […] After 45 min incubation at 37° C., plates were washed with PBS-0.05% Tween. To detect receptor binding, HRP-conjugated anti-human IgG antibody was added, diluted 1:5000 in PBS-0.5% milk. After incubation for 1 h at 37° C., the plates were washed with PBS-Tween, and TMB was added. The reaction was stopped after 10 min. Wells incubated with the receptors without the addition of the antibody fragments were taken as reference for maximum binding in the absence of competitor. In this assay, in the case of inhibition of the VEGF/VEGFR axis, the CIGB166a antibody fragment was used as a positive control, and an anti-FGF polyclonal antibody was used for the FGF/FGFR axis. The percentage of inhibition of receptor binding to its ligand was calculated as follows: […]
The biological effect of VEGF is a consequence of its binding to two fundamental receptors (VEGFR1 and VEGFR2), so for a polypeptide that binds to VEGF to be effective in the therapeutic setting, it must block these interactions (Shibuya, Cell Structure and Function, 2001: 26: 25-35). The ability of Nb-V1 to compete with receptors 1 and 2 for binding to its ligand (VEGF) was assessed by solid phase ligand competition ELISA, as described above.

[7] = target: VEGF (soluble stimulus added to cell cultures); experiment: cell-based or functional assay
Sequence of VEGF (soluble stimulus added to cell cultures) (P15692 whole entry): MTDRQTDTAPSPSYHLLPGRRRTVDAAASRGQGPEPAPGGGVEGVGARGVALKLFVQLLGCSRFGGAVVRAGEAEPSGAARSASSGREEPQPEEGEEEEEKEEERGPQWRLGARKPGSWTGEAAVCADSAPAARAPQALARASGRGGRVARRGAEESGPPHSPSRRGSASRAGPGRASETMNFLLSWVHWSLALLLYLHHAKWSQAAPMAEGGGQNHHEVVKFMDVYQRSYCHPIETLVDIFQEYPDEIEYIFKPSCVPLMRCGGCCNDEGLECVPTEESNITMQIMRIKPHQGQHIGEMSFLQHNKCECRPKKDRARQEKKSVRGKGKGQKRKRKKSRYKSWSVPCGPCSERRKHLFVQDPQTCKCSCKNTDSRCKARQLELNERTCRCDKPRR

[8] = target: bFGF (soluble stimulus added to cell cultures); experiment: cell-based or functional assay
GST-hVEGF121 [9] = target: T1, GST-hVEGF121; experiment: ELISA, coated GST-hVEGF; remark: listed apart in the source
Protocol: as §1

Recombinant human bFGF [10] = target: T2, Recombinant human bFGF; experiment: competition ELISA, coated bFGF, competitor Fc-FGFR1; remark: listed apart in the source
Protocol: as §2

IC50 (GST-hVEGF121 [1])	EC50 (GST-hVEGF121 [2])	EC50 (Recombinant human bFGF [3])	IC50 (Recombinant human bFGF [4])	EC50 (Recombinant human bFGF [5])	IC50 (GST-hVEGF121 [6])	IC50, proliferation of HDMEC cells +VEGF (5 ng/ml) [7]	IC50, proliferation of HDMEC cells +bFGF (10 ng/ml) [8]	EC50 (GST-hVEGF121 [9])	IC50 (Recombinant human bFGF [10])	Binder
28.6 nM	4.64 nM	–	–	–	–	–	–	–	–	Nb-V1\cmycH6 (VHH, Nb-V1 without c-myc tracer peptide and histidine tag) VHH: QVQLVESGGGLVQPGGSLRLSCAASGNSAEDRLYNSYTWFRQAPGQGLEAVAAISSHFSAGLTYYADSVKGRFTISRDNSKNTLYLQMNSLRAEDTAVYYCEITSHASHNDAWSTPRTVWGQGTLVTVSS
28.6 nM	4.56 nM	11.8 nM	132 nM	–	–	–	–	–	–	Nb-FV1\cmycH6 (bispecific antibody, Nb-FV1 without c-myc tracer peptide and histidine tag) QVQLVESGGGLVQPGGSLRLSCAASGTEDGRLLTLGGSWFRQAPGQGLEAVAAIGAGDRGGATYYADSVKGRFTISRDNSKNTLYLQMNSLRAEDTAVYYCTALYERQPQLAATKVARKWGQGTLVTVSSAHHSEDPSSKAPKAPAQVQLVESGGGLVQPGGSLRLSCAASGNSAEDRLYNSYTWFRQAPGQGLEAVAAISSHFSAGLTYYADSVKGRFTISRDNSKNTLYLQMNSLRAEDTAVYYCEITSHASHNDAWSTPRTVWGQGTLVTVSS
–	–	–	–	11.3 nM	28.5 nM	132 nM	120 nM	4.49 nM	136 nM	Nb-VF3 (bispecific antibody, Bispecific tandem VHH (VEGF and bFGF); with c-myc and histidine tag) QVQLVESGGGLVQPGGSLRLSCAASGNSAEDRLYNSYTWFRQAPGQGLEAVAAISSHFSAGLTYYADSVKGRFTISRDNSKNTLYLQMNSLRAEDTAVYYCEITSHASHNDAWSTPRTVWGQGTLVTVSSAHHSEDPSSKAPKAPAQVQLVESGGGLVQPGGSLRLSCAASGTEDGRLLTLGGSWFRQAPGQGLEAVAAIGAGDRGGATYYADSVKGRFTISRDNSKNTLYLQMNSLRAEDTAVYYCTALYERQPQLAATKVARKWGQGTLVTVSSAAAGSEQKLISEEDLNSHHHHHH
5.23 nM	1.78 nM	–	–	–	–	–	–	–	–	Nb-VV6\cmycH6 (VHH, Nb-VV6 without c-myc tracer peptide and histidine tag) QVQLVESGGGLVQPGGSLRLSCAASGNSAEDRLYNSYTWFRQAPGQGLEAVAAISSHFSAGLTYYADSVKGRFTISRDNSKNTLYLQMNSLRAEDTAVYYCEITSHASHNDAWSTPRTVWGQGTLVTVSSAHHSEDPSSKAPKAPAQVQLVESGGGLVQPGGSLRLSCAASGNSAQDRLYNSYTWFRQAPGQGLEAVAAISSHFSAGLTYYADSVKGRFTISRDNSKNTLYLQMNSLRAEDTAVYYCEITSHASHNDAWSTPRTVWGQGTLVTVSS
